Assay results from patent publication US20160367961A1, “METHOD AND COMPOSITION FOR PEPTIDE C[…] PROTEASE TREATMENT” (Roche Sequencing Solutions, Inc., priority 2015, published 2016).

Target: streptavidin, P22629
Experiment: SPR, BIAcore X100, streptavidin on CM5 chip, peptide in solution

streptavidin, P22629, sequence (P22629 37-163 limits assumed): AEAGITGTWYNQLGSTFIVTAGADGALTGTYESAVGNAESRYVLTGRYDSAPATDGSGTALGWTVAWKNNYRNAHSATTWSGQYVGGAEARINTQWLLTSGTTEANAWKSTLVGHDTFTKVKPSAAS

| Binder | Kd |
| --- | --- |
| LYDHPQNGGQ (modifications not checked) | 9.4 µM |
| QNDHPQNGGQ (modifications not checked) | 10.8 µM |
| NQPWQ (modifications not checked) [head-to-tail cyclic NQpWQ peptide] | 61.3 µM |

The remaining lines, values ahead:

| Kd | Binder |
| --- | --- |
| 100 µM | H-LYDHPQNGGQ-OH |
| 320 µM | H-QNDHPQNGGQ-OH |
